# Target: the molecule itself
# Experiment: crystal structure
protein,measurement,value
GluA2 S1S2 flop (ligand-binding domain of rat GluA2o) (domain or fragment) GANKTVVVTTILESPYVMMKKNHEMLEGNERYEGYCVDLAAEIAKHCGFKYKLTIVGDGKYGARDADTKIWNGMVGELVYGKADIAIAPLTITLVREEVIDFSKPFMSLGISIMIKKGTPIESAEDLSKQTEIAYGTLDSGSTKEFFRRSKIAVFDKMWTYMRSAEPSVFVRTTAEGVARVRKSKGKYAYLLESTMNEYIEQRKPCDTMKVGGNLDSKGYGIATPKGSSLGNAVNLAVLKLNEQGLLDKLKNKWWYDKGECGS,binding result,binds

# Source: paper PMC3072023 (Biochemistry, 2010)
